In patent US20200317802A1 (Merck KGaA, published 2020):
Each block holds one binder with its values, some of them ahead of it.

Legend:
[1] = target: T1, recombinant human ADAMTS5 (R&D Systems cat #2198-AD) (human, UniProt Q9UNA0 262-622, limits assumed); assay: cell-based or functional assay
T1 sequence: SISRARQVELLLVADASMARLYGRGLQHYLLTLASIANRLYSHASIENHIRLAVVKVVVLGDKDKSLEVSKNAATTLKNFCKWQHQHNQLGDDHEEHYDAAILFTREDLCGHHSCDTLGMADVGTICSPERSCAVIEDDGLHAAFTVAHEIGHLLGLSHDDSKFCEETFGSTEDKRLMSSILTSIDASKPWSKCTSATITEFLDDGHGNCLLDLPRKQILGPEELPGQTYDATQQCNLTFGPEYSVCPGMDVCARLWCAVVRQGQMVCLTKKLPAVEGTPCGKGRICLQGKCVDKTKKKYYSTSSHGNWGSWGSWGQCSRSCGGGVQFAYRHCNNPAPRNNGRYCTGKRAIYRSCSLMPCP

[2] = target: T1, recombinant human ADAMTS5 (R&D Systems …); assay: SPR kinetics, Biacore T100, ADAMTS5 immobilised
Method: (§1) For referencing, affinity for human ADAMTS5 was also determined. Thereto, rat and human ADAMTS5 were immobilized onto a CM5 chip via amine coupling, using EDC and NHS chemistry. Purified Nanobodies were injected for 2 minutes at different concentrations (between 1 and 1000 nM) and allowed to dissociate for 25 min at a flow rate of 45 μl/min. The kinetic constants were calculated from the sensorgrams using the BIAEvaluation software (1:1 interaction).

[3] = target: T2, rat recombinant ADAMTS5 (rat, UniProt Q9R001 262-618 (mouse entry)); assay: SPR kinetics, Biacore T100, ADAMTS5 immobilised
T2 construct: in house, HEK293, His tag in the entry
T2 chain: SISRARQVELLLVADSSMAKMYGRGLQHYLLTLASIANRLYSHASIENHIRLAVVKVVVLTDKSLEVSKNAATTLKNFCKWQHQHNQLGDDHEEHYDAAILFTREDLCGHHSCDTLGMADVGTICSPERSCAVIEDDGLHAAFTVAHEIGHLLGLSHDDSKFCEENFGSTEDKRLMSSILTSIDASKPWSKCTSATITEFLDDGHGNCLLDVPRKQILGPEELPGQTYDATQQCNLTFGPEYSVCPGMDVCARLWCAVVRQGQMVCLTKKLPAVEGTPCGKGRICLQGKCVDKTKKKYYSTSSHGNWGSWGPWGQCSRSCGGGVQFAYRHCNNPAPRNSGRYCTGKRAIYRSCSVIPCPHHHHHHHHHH
Method: as §1

[4] = target: T1, recombinant human ADAMTS5 (R&D Systems …); assay: cell-based or functional assay; remark: listed apart in the source

AlphaLISA IC50, Exp 1 [1]: 0.2 nM
AlphaLISA IC50, Exp 2 [1]: 0.27 nM
AlphaLISA IC50, Exp 3 [1]: 0.19 nM
AlphaLISA IC50, Exp 4 [1]: 0.44 nM
B1: monovalent Nanobody 2F3^SO (2F3*) (VHH)
VHH: DVQLVESGGGVVQPGGSLRLSCAASGRTVSSYAMGWFRQAPGKEREFVAGISRSAERTYYVDSLKGRFTISRDNSKNTVYLQMNSLRPEDTALYYCAADLDPNRIFSREEYAYWGQGTLVTVSS

Kd [2]: 4.9 nM
Kd [3]: 5.3 nM
B2: Nanobody 093 (3F04 (N100fQ)) (VHH)
VHH: EVQLVESGGGSVQAGGSLRLSCVASGRYPMAWFRQAPGKEREFVAGVSWGGDRTYYADSVQGRFTVSRDYAKNTLYLQMNSLKPEDAAVYYCAGDPWGRLFRVKDQYSDWGQGTLVTVSS
notes: N-glycosylation motif knocked out; also called construct 093

AlphaLISA IC50, - HSA [4]: 0.1 nM
Kd [2]: 3.5 nM
Kd [3]: 1.7 nM
B3: Nanobody 049 (11B06 (N52S)) (VHH)
VHH: EVQLVESGGGLVQAGGSLRLSCAASGLTFRRNAMGWFRQAPGKERELLAGISWSGGTTYYVDSVKGRFTISRDNAKNTVDLQMISPKPEDTAVYYCAADGDIGTLVNDENPRYWGQGTLVTVSS
notes: N-glycosylation motif knocked out; also called construct 049
